Our source for the Kd and stoichiometry N values is article PMC9138599, “Clade-Specific Alterations within the HIV-1 Capsid Protein with Implications for Nuclear Translocation” (Biomolecules, 2022).

The target in assay [1] is NUP-153 RRR patch (Homo sapiens) (UniProt P49790). Conditions: cited from earlier work.
Assay [2] has as its target HIV-1 CA hexamer from clade A1 (isolate 92UG037.1) (HIV-1 isolate 92UG037.1 (clade A1)). Put plainly: cross-linking.
Assay [3] has as its target HIV-1 CA hexamer from clade A2 (isolate CDKTB48) (HIV-1 isolate CDKTB48 (clade A2)). Briefly: cross-linking.
In assay [4] the target is HIV-1 CA hexamer from clade B (isolate NL4-3) (HIV-1 isolate NL4-3 (clade B)). Briefly: cross-linking.
For assay [5], the target named is HIV-1 CA hexamer from clade C (isolate 92BR025.8) (HIV-1 isolate 92BR025.8 (clade C)). Briefly: cross-linking.
Assay [6] has as its target HIV-1 CA hexamer from clade D (isolate 94UG114.1) (HIV-1 isolate 94UG114.1 (clade D)). Put plainly: cross-linking.
For assay [7], the target named is HIV-1 CA hexamer from clade A2 (isolate CDKTB48) (HIV-1 isolate CDKTB48 (clade A2)). Put plainly: SPR; CA hexamer amine-coupled to a ProteOn GLH chip, peptide injected as analyte; 25 °C; 1x PBS pH 7.4, 3% DMSO, 0.005% polysorbate 20; reference surface IgG b12; 1:1 binding model; KD from a Langmuir isotherm equilibrium fit and from a global kinetic fit; triplicate. A general note: In SPR one partner is held on a chip, and binding of the other changes the refractive index at the surface.

Assay [8] deals with HIV-1 CA hexamer from clade C (isolate 92BR025.8) (HIV-1 isolate 92BR025.8 (clade C)). The description is as above.
Assay [9] deals with HIV-1 CA hexamer from clade D (isolate 94UG114.1) (HIV-1 isolate 94UG114.1 (clade D)). The assay is described as above.

pKd: −log10 of the molar value. Several values for one entry are separate records, joined by “and”; a condition that tells them apart may be missing. Equal entries are not always repeated.

As a reminder, the pKd is the negative decadic logarithm of the Kd, by convention in mol/L. Regarding CA (from UniProt O93215), in assay [1], the pKd was 6.10.

The term stoichiometry N denotes a count of units in the complex or per binding partner. For the substance “HIV-1 CA hexamer from clade A1 (isolate 92UG037.1) (natural protein)”, in assay [2], the stoichiometry N came to 6.

For the substance “HIV-1 CA hexamer from clade A2 (isolate CDKTB48) (natural protein)”, the stoichiometry N in [3] was determined as 6.

As to “HIV-1 CA hexamer from clade B (isolate NL4-3) (natural protein)”, in assay [4], the stoichiometry N stood at 6.

“HIV-1 CA hexamer from clade C (isolate 92BR025.8) (natural protein)”: the stoichiometry N in assay [5] is 6.

The substance “HIV-1 CA hexamer from clade D (isolate 94UG114.1) (natural protein)” displayed a stoichiometry N in assay [6] of 6.

As for NUP-153 peptide (1407-…-1423), the pKd in assay [7] is 3.35 and 3.13; in assay [8], 3.30 and 3.06; in assay [9], 3.51 and 3.43.
